Data published in patent US20230395193A1 (priority 2020, published 2023).

B1: E-Q6UX04 (protein, UniProt Q6UX04 2-472, looked up)
Spliceosome-associated …: SNIYIQEPPTNGKVLLKTTAGDIDIELWSKEAPKACRNFIQLCLEAYYDNTIFHRVVPGFIVQGGDPTGTGSGGESIYGAPFKDEFHSRLRFNRRGLVAMANAGSHDNGSQFFFTLGRADELNNKHTIFGKVTGDTVYNMLRLSEVDIDDDERPHNPHKIKSCEVLFNPFDDIIPREIKRLKKEKPEEEVKKLKPKGTKNFSLLSFGEEAEEEEEEVNRVSQSMKGKSKSSHDLLKDDPHLSSVPVVESEKGDAPDLVDDGEDESAEHDEYIDGDEKNLMRERIAKKLKKDTSANVKSAGEGEVEKKSVSRSEELRKEARQLKRELLAAKQKKVENAAKQAEKRSEEEEAPPDGAVAEYRREKQKYEALRKQQSKKGTSREDQTLALLNQFKSKLTQAIAETPENDIPETEVEDDEGWMSHVLQFEDKSRKVKDASMQDSDTFEIYDPRNPVNKRRREESKKLMREKKERR
modifications: interactor of E protein
B2: E-Q8IWA5 (protein, UniProt Q8IWA5 1-706, looked up)
Choline transporter-like …: MGDERPHYYGKHGTPQKYDPTFKGPIYNRGCTDIICCVFLLLAIVGYVAVGIIAWTHGDPRKVIYPTDSRGEFCGQKGTKNENKPYLFYFNIVKCASPLVLLEFQCPTPQICVEKCPDRYLTYLNARSSRDFEYYKQFCVPGFKNNKGVAEVLQDGDCPAVLIPSKPLARRCFPAIHAYKGVLMVGNETTYEDGHGSRKNITDLVEGAKKANGVLEARQLAMRIFEDYTVSWYWIIIGLVIAMAMSLLFIILLRFLAGIMVWVMIIMVILVLGYGIFHCYMEYSRLRGEAGSDVSLVDLGFQTDFRVYLHLRQTWLAFMIILSILEVIIILLLIFLRKRILIAIALIKEASRAVGYVMCSLLYPLVTFFLLCLCIAYWASTAVFLSTSNEAVYKIFDDSPCPFTAKTCNPETFPSSNESRQCPNARCQFAFYGGESGYHRALLGLQIFNAFMFFWLANFVLALGQVTLAGAFASYYWALRKPDDLPAFPLFSAFGRALRYHTGSLAFGALILAIVQIIRVILEYLDQRLKAAENKFAKCLMTCLKCCFWCLEKFIKFLNRNAYIMIAIYGTNFCTSARNAFFLLMRNIIRVAVLDKVTDFLFLLGKLLIVGSVGILAFFFFTHRIRIVQDTAPPLNYYWVPILTVIVGSYLIAHGFFSVYGMCVDTLFLCFLEDLERNDGSAERPYFMSSTLKKLLNKTNKKAAES
B3: E-Q8WY22 (protein, UniProt Q8WY22 1-251, looked up)
BRI3-binding protein: MGARASGGPLARAGLLLLLLLLLLLGLLAPGAQGARGRGGAEKNSYRRTVNTFSQSVSSLFGEDNVRAAQKFLARLTERFVLGVDMFVETLWKVWTELLDVLGLDVSNLSQYFSPASVSSSPARALLLVGVVLLAYWFLSLTLGFTFSVLHVVFGRFFWIVRVVLFSMSCVYILHKYEGEPENAVLPLCFVVAVYFMTGPMGFYWRSSPSGPSNPSNPSVEEKLEHLEKQVRLLNIRLNRVLESLDRSKDK
modifications: prey of SARS-CoV-2 E
B4: E-Q9BTV4 (protein, UniProt Q9BTV4 2-400, looked up)
Transmembrane protein 43: AANYSSTSTRREHVKVKTSSQPGFLERLSETSGGMFVGLMAFLLSFYLIFTNEGRALKTATSLAEGLSLVVSPDSIHSVAPENEGRLVHIIGALRTSKLLSDPNYGVHLPAVKLRRHVEMYQWVETEESREYTEDGQVKKETRYSYNTEWRSEIINSKNFDREIGHKNPSAMAVESFMATAPFVQIGRFFLSSGLIDKVDNFKSLSLSKLEDPHVDIIRRGDFFYHSENPKYPEVGDLRVSFSYAGLSGDDPDLGPAHVVTVIARQRGDQLVPFSTKSGDTLLLLHHGDFSAEEVFHRELRSNSMKTWGLRAAGWMAMFMGLNLMTRILYTLVDWFPVFRDLVNIGLKAFAFCVATSLTLLTVAAGWLFYRPLWALLIAGLALVPILVARTRVPAKKLE
B5: E-Q9NPI6 (protein, UniProt Q9NPI6 1-582, looked up)
mRNA-decapping enzyme 1A: MEALSRAGQEMSLAALKQHDPYITSIADLTGQVALYTFCPKANQWEKTDIEGTLFVYRRSASPYHGFTIVNRLNMHNLVEPVNKDLEFQLHEPFLLYRNASLSIYSIWFYDKNDCHRIAKLMADVVEEETRRSQQAARDKQSPSQANGCSDHRPIDILEMLSRAKDEYERNQMGDSNISSPGLQPSTQLSNLGSTETLEEMPSGSQDKSAPSGHKHLTVEELFGTSLPKEQPAVVGLDSEEMERLPGDASQKEPNSFLPFPFEQLGGAPQSETLGVPSAAHHSVQPEITTPVLITPASITQSNEKHAPTYTIPLSPVLSPTLPAEAPTAQVPPSLPRNSTMMQAVKTTPRQRSPLLNQPVPELSHASLIANQSPFRAPLNVTNTAGTSLPSVDLLQKLRLTPQHDQIQTQPLGKGAMVASFSPAAGQLATPESFIEPPSKTAAARVAASASLSNMVLAPLQSMQQNQDPEVFVQPKVLSSAIPVAGAPLVTATTTAVSSVLLAPSVFQQTVTRSSDLERKASSPSPLTIGTPESQRKPSIILSKSQLQDTLIHLIKNDSSFLSTLHEVYLQVLTKNKDNHNL
modifications: interactor of SARS-CoV-2 E
B6: M-Q4KMQ2 (protein, UniProt Q4KMQ2 1-910, looked up)
Anoctamin-6: MKKMSRNVLLQMEEEEDDDDGDIVLENLGQTIVPDLGSLESQHDFRTPEFEEFNGKPDSLFFNDGQRRIDFVLVYEDESRKETNKKGTNEKQRRKRQAYESNLICHGLQLEATRSVLDDKLVFVKVHAPWEVLCTYAEIMHIKLPLKPNDLKNRSSAFGTLNWFTKVLSVDESIIKPEQEFFTAPFEKNRMNDFYIVDRDAFFNPATRSRIVYFILSRVKYQVINNVSKFGINRLVNSGIYKAAFPLHDCKFRRQSEDPSCPNERYLLYREWAHPRSIYKKQPLDLIRKYYGEKIGIYFAWLGYYTQMLLLAAVVGVACFLYGYLNQDNCTWSKEVCHPDIGGKIIMCPQCDRLCPFWKLNITCESSKKLCIFDSFGTLVFAVFMGVWVTLFLEFWKRRQAELEYEWDTVELQQEEQARPEYEARCTHVVINEITQEEERIPFTAWGKCIRITLCASAVFFWILLIIASVIGIIVYRLSVFIVFSAKLPKNINGTDPIQKYLTPQTATSITASIISFIIIMILNTIYEKVAIMITNFELPRTQTDYENSLTMKMFLFQFVNYYSSCFYIAFFKGKFVGYPGDPVYWLGKYRNEECDPGGCLLELTTQLTIIMGGKAIWNNIQEVLLPWIMNLIGRFHRVSGSEKITPRWEQDYHLQPMGKLGLFYEYLEMIIQFGFVTLFVASFPLAPLLALVNNILEIRVDAWKLTTQFRRLVPEKAQDIGAWQPIMQGIAILAVVTNAMIIAFTSDMIPRLVYYWSFSVPPYGDHTSYTMEGYINNTLSIFKVADFKNKSKGNPYSDLGNHTTCRYRDFRYPPGHPQEYKHNIYYWHVIAAKLAFIIVMEHVIYSVKFFISYAIPDVSKRTKSKIQREKYLTQKLLHENHLKDMTKNMGVIAERMIEAVDNNLRPKSE
B7: M-Q5BJH7 (protein, UniProt Q5BJH7 1-314, looked up)
Protein YIF1B: MHPAGLAAAAAGTPRLRKWPSKRRIPVSQPGMADPHQLFDDTSSAQSRGYGAQRAPGGLSYPAASPTPHAAFLADPVSNMAMAYGSSLAAQGKELVDKNIDRFIPITKLKYYFAVDTMYVGRKLGLLFFPYLHQDWEVQYQQDTPVAPRFDVNAPDLYIPAMAFITYVLVAGLALGTQDRFSPDLLGLQASSALAWLTLEVLAILLSLYLVTVNTDLTTIDLVAFLGYKYVGMIGGVLMGLLFGKIGYYLVLGWCCVAIFVFMIRTLRLKILADAAAEGVPVRGARNQLRMYLTMAVAAAQPMLMYWLTFHLVR
B8: M-Q5JRX3 (protein, UniProt Q5JRX3 29-1037, looked up)
Presequence protease, …: NSNRACERALQYKLGDKIHGFTVNQVTSVPELFLTAVKLTHDDTGARYLHLAREDTNNLFSVQFRTTPMDSTGVPHILEHTVLCGSQKYPCRDPFFKMLNRSLSTFMNAFTASDYTLYPFSTQNPKDFQNLLSVYLDATFFPCLRELDFWQEGWRLEHENPSDPQTPLVFKGVVFNEMKGAFTDNERIFSQHLQNRLLPDHTYSVVSGGDPLCIPELTWEQLKQFHATHYHPSNARFFTYGNFPLEQHLKQIHEEALSKFQKIEPSTVVPAQTPWDKPREFQITCGPDSFATDPSKQTTISVSFLLPDITDTFEAFTLSLLSSLLTSGPNSPFYKALIESGLGTDFSPDVGYNGYTREAYFSVGLQGIAEKDIETVRSLIDRTIDEVVEKGFEDDRIEALLHKIEIQMKHQSTSFGLMLTSYIASCWNHDGDPVELLKLGNQLAKFRQCLQENPKFLQEKVKQYFKNNQHKLTLSMRPDDKYHEKQAQVEATKLKQKVEALSPGDRQQIYEKGLELRSQQSKPQDASCLPALKVSDIEPTIPVTELDVVLTAGDIPVQYCAQPTNGMVYFRAFSSLNTLPEELRPYVPLFCSVLTKLGCGLLDYREQAQQIELKTGGMSASPHVLPDDSHMDTYEQGVLFSSLCLDRNLPDMMQLWSEIFNNPCFEEEEHFKVLVKMTAQELANGIPDSGHLYASIRAGRTLTPAGDLQETFSGMDQVRLMKRIAEMTDIKPILRKLPRIKKHLLNGDNMRCSVNATPQQMPQTEKAVEDFLRSIGRSKKERRPVRPHTVEKPVPSSSGGDAHVPHGSQVIRKLVMEPTFKPWQMKTHFLMPFPVNYVGECIRTVPYTDPDHASLKILARLMTAKFLHTEIREKGGAYGGGAKLSHNGIFTLYSYRDPNTIETLQSFGKAVDWAKSGKFTQQDIDEAKLSVFSTVDAPVAPSDKGMDHFLYGLSDEMKQAHREQLFAVSHDKLLAVSDRYLGTGKSTHGLAILGPENPKIAKDPSWIIQ
modifications: interactor of viral M protein

system: SARS-CoV-1, MERS-CoV and SARS-CoV-2 proteins in HEK293T cells; design: species or system human

Row | Molecule | MIST_MERS | MIST_SARS1 | MIST_SARS2 | Saint_MERS | Saint_SARS1 | Saint_SARS2
1 | B1 | 0.03892 | 0.6535 | 0.8931 | 0 | 0.98 | 0.66
2 | B2 | 0 | 0 | 0.9503 | 0 | 0 | 0.98
3 | B3 | 0.9912 | 0 | 0 | 1 | 0 | 0
4 | B4 | 0.8753 | 0 | 0 | 1 | 0 | 0
5 | B5 | 0.9797 | 0 | 0 | 1 | 0 | 0
6 | B6 | 0 | 0.864 | 0.9939 | 0 | 0.32 | 1
7 | B7 | 0.3712 | 0.9893 | 0.5979 | 0 | 0.97 | 1
8 | B8 | 0 | 0.001111 | 0.9523 | 0 | 0 | 1
